Assays:
[1] = molecular target: T1, truncated wild type EGFR 1-525 (EGFR1 (1-525)-SRGPF-Myc-NMHTG-6His) (human, UniProt P00533 25-525); assay: SPR (Biacore), antibody captured via anti-human Fc, antigen injected
T1 construct: the signal peptide is left out; not shown: Myc tag
Method: (§1) Biacore analysis was performed using a Biacore T100 with a CM5 sensory chip, and test antibodies were captured via anti-human Fc antibodies that were amino coupled to the chip using a standard amine coupling kit according to manufacturer's instructions (GE healthcare). Briefly, a CM5 chip surface was activated with EDC/NHS. Goat anti-human Fc specific polyclonal antibody (Thermo Fisher Scientific Inc., Rockford, Ill.) was diluted to 25 μg/mL in 10 mM sodium acetate (pH 4.5) and injected over the activated surface to achieve immobilization. Unreacted moieties on the biosensor surface were blocked with ethanolamine. The Biacore T100 is a surface plasmon resonance based biosensor for detecting, characterizing and quantifying bimolecular interactions, including the interactions between an antibody and its antigen. Antigen was injected at 80 μL/minute for 3 minutes and dissociation was followed for 15 minutes.

[2] = molecular target: T2, EGFRvIII extracellular domain (EGFR (1-29)-G-(298-645)-LESRGPF-Myc-NMHTG-6His) (human, UniProt P00533 298-641); assay: as above
T2 construct: also called recombinant EGFRvIII; not shown: Myc tag
Method: as §1

[3] = molecular target: T1, truncated wild type EGFR 1-525 (EGFR1 …); assay: SPR (Biacore T100), antibody captured on anti-human Fc, antigen in solution
Method: as §1

[4] = molecular target: T2, EGFRvIII extracellular domain (EGFR …); assay: as above
Method: as §1

EGFRvIII on U87MG cells = molecular target: T3, EGFRvIII on U87MG cells (human, UniProt P00533 298-1210); assay: competition FACS on U87MG de2-7 cells expressing EGFRvIII; competitor Ab1-FITC at 100 nM
T3 construct: also called de2-7 EGFR

[5] = molecular target: T4, wild type human EGFR on cells (A431, NHEK, SCC-15, H292) (human, UniProt P00533 25-1210); assay: FACS binding to normal human epidermal keratinocytes (NHEK), AlexaFluor 488 secondary antibody
T4 construct: Endogenous receptor of human cell lines and keratinocytes said to express wild type EGFR; also called wild type EGFR; wtEGFR
Method: NHEK cells express wild type EGFR.
Cells were harvested when approximately 80% confluent using trypsin, neutralized and washed once in PBS/1% FBS (FACS buffer) then resuspended at 2.5×10⁶ cells/mL in FACS buffer. 100 μL of cells/well were added to a round bottom 96-well plate. 10 μL of a 10x concentration of Ab (final concentrations are listed in the Figures) was added and plate was incubated at 4° C. for one hour. Wells were washed twice with FACS buffer then resuspended in 50 μL of secondary Ab (AlexaFluor 488) diluted in FACS buffer. The plate was incubated at 4° C. for one hour then washed twice with FACS buffer. Cells were then resuspended in 100 μL of PBS/1% formaldehyde and analyzed on a Becton Dickinson LSRII flow cytometer. Data was analyzed using WinList flow cytometry analysis software.

Binder | KD ratio (Ab1/variant Ab) [1] | Kd [1] | koff [1] | kon [1] | KD ratio (Ab1/variant Ab) [2] | Kd [2] | koff [2] | kon [2] | Kd [3] | fold improvement in KD over Ab1 [3] | Kd [4] | fold increase in affinity versus Ab1 [4] | IC50 (read off the curve) (EGFRvIII on U87MG cells) | EC50 (read off the curve) [5] | fold increase over the KD of Ab1 [3] | fold increase in affinity over the KD of Ab1 [3]
Antibody N (AbN) (antibody, V domains shown, Full length IgG1) VH: EVQLQESGPGLVKPSQTLSLTCTVSGYSIGRDFAWNWIRQPPGKGLEWMGYISYSGNTRYQPSLKSRITISRDTSKNQFFLKLNSVTAADTATYYCVTASRGFPYWGQGTLVTVSS VL: DIQMTQSPSSMSVSVGDRVTITCHSSQDITYNVGWLQQKPGKSFKGLIYHGSNLDHGVPSRFSGSGSGTDYTLTISSLQPEDFATYYCVQYDDFPWTFGGGTKLEIK | 642 | 3.5 nM | 1.71e-05 s⁻¹ | 4840 M⁻¹ s⁻¹ | 12.5 | 0.75 nM | 0.000103 s⁻¹ | 137000 M⁻¹ s⁻¹ |  |  |  |  |  |  |  | 
Antibody A (AbA) (antibody, human IgG1, kappa, V domains shown, IgG1) VH: EVQLQESGPGLVKPSQTLSLTCTVSGYSISRDFAWNWIRQPPGKGLEWMGYISYNGNTRYQPSLKSRITISRDTSKNQFFLKLNSVTAADTATYYCVTASRGFPYWGQGTLVTVSS VL: DIQMTQSPSSMSVSVGDRVTITCHSSQDINSNIGWLQQKPGKSFKGLIYHGTNLDDGVPSRFSGSGSGTDYTLTISSLQPEDFATYYCVQYAQFPWTFGGGTKLEIKR | 10.1 |  | 0.000731 s⁻¹ | 3260 M⁻¹ s⁻¹ | 4.1 |  | 0.000173 s⁻¹ | 76100 M⁻¹ s⁻¹ | 220 nM | 10 fold | 2.3 nM | 4 fold | ~30 nM | ~50 nM |  | 
Antibody B (AbB) (antibody, V domains shown, Converted from scFv into a full length IgG1 antibody) VH: EVQLQESGPGLVKPSQTLSLTCTVSGYSISNDFAWNWIRQPPGKGLEWMGYISYKGNTRYQPSLKSRITISRDTSKNQFFLKLNSVTAADTATYYCVTASRGFPWWGQGTLVTVSS VL: DIQMTQSPSSMSVSVGDRVTITCHSSQDINSNIGWLQQKPGKSFKGLIYHGTNLDDGVPSRFSGSGSGTDYTLTISSLQPEDFATYYCVQYAQFPWTFGGGTKLEIK | 10.5 | 220 nM | 0.00119 s⁻¹ | 5460 M⁻¹ s⁻¹ | 4.2 | 2.2 nM | 0.000173 s⁻¹ | 78300 M⁻¹ s⁻¹ |  |  |  |  |  |  |  | 
Antibody L (AbL) (antibody, V domains shown, Full length IgG1) VH: EVQLQESGPGLVKPSQTLSLTCTVSGYSIGKDFAWNWIRQPPGKGLEWMGYISYNGNTRYQPSLKSRITISRDTSKNQFFLKLNSVTAADTATYYCVTASRGLPYWGQGTLVTVSS VL: DIQMTQSPSSMSVSVGDRVTITCHSSQDITYNVGWLQQKPGKSFKGLIYHGSNLDHGVPSRFSGSGSGTDYTLTISSLQPEDFATYYCVQYDDFPWTFGGGTKLEIK | 722 | 3.1 nM | 1.78e-05 s⁻¹ | 5650 M⁻¹ s⁻¹ | 27.1 | 0.35 nM | 6.95e-05 s⁻¹ | 200000 M⁻¹ s⁻¹ |  |  |  |  |  |  |  | 
Antibody M (AbM) (antibody, V domains shown, Full length IgG1) VH: EVQLQESGPGLVKPSQTLSLTCTVSGYSIGRDFAWNWIRQPPGKGLEWMGYISYNGNTRYQPSLKSRITISRDTSKNQFFLKLNSVTAADTATYYCVTASRGFPYWGQGTLVTVSS VL: DIQMTQSPSSMSVSVGDRVTITCHSSQDITYNVGWLQQKPGKSFKGLIYHGSNLDHGVPSRFSGSGSGTDYTLTISSLQPEDFATYYCVQYDDFPWTFGGGTKLEIK | 387 | 5.9 nM | 2.26e-05 s⁻¹ | 3840 M⁻¹ s⁻¹ | 14.9 | 0.63 nM | 0.000118 s⁻¹ | 187000 M⁻¹ s⁻¹ |  |  |  |  | ~30 nM | ~40 nM |  | 
Antibody F (AbF) (antibody, V domains shown, Full length IgG1) VH: EVQLQESGPGLVKPSQTLSLTCTVSGYSISRDFAWNWIRQPPGKGLEWMGYISYSGNTRYQPSLKSRITISRDTSKNQFFLKLNSVTAADTATYYCVTASRGFPYWGQGTLVTVSS VL: DIQMTQSPSSMSVSVGDRVTITCHSSQDINSNIGWLQQKPGKSFKGLIYHGTNLDDGVPSRFSGSGSGTDYTLTISSLQPEDFATYYCVQYAQFPWTFGGGTKLEIK | 5.4 | 420 nM | 0.000831 s⁻¹ | 1980 M⁻¹ s⁻¹ | 2.4 | 3.9 nM | 0.000324 s⁻¹ | 83600 M⁻¹ s⁻¹ |  |  |  |  |  |  |  | 
Antibody E (AbE) (antibody, V domains shown, Full length IgG1) VH: EVQLQESGPGLVKPSQTLSLTCTVSGYSISSDFAWNWIRQPPGKGLEWMGYISYSGNTRYQPSLKSRITISRDTSKNQFFLKLNSVTAADTATYYCVTAGRGFPYWGQGTLVTVSS VL: DIQMTQSPSSMSVSVGDRVTITCHSSQDINSNLGWLQQKPGKSFKGLIYHGSNLDHGVPSRFSGSGSGTDYTLTISSLQPEDFATYYCVQYDQFPWTFGGGTKLEIK | 3.8 |  | 0.00367 s⁻¹ | 6170 M⁻¹ s⁻¹ | 1.2 | 8.2 nM | 0.00158 s⁻¹ | 193000 M⁻¹ s⁻¹ | 590 nM |  |  |  |  |  |  | ~4 fold
Antibody D (AbD) (antibody, V domains shown, Full length IgG1) VH: EVQLQESGPGLVKPSQTLSLTCTVSGYSISSDFAWNWIRQPPGKGLEWMGYISYSGNTRYQPSLKSRITISRDTSKNQFFLKLNSVTAADTATYYCVTAGRGFPYWGQGTLVTVSS VL: DIQMTQSPSSMSVSVGDRVTITCHSSQDINSNLGWLQQKPGKSFKGLIYHGANLHDGVPSRFSGSGSGTDYTLTISSLQPEDFATYYCVQYAEFPWTFGGGTKLEIK | 4.1 | 550 nM | 0.00322 s⁻¹ | 5820 M⁻¹ s⁻¹ | 1.5 | 6.1 nM | 0.000866 s⁻¹ | 141000 M⁻¹ s⁻¹ |  |  |  |  |  |  |  | 

Other lines, results leading:

KD ratio (Ab1/variant Ab) [1] | Kd [1] | koff [1] | kon [1] | KD ratio (Ab1/variant Ab) [2] | Kd [2] | koff [2] | kon [2] | Kd [3] | fold improvement in KD over Ab1 [3] | Kd [4] | fold increase in affinity versus Ab1 [4] | IC50 (read off the curve) (EGFRvIII on U87MG cells) | EC50 (read off the curve) [5] | fold increase over the KD of Ab1 [3] | fold increase in affinity over the KD of Ab1 [3] | Binder
1370 |  | 7.92e-06 s⁻¹ | 4780 M⁻¹ s⁻¹ | 15.8 | 0.6 nM | 7.75e-05 s⁻¹ | 130000 M⁻¹ s⁻¹ | 1.7 nM |  |  |  | ~30 nM | ~40 nM | > 1300 fold |  | Antibody K (AbK) (antibody, V domains shown, Full length IgG1) VH: EVQLQESGPGLVKPSQTLSLTCTVSGYSISRDFAWNWIRQPPGKGLEWMGYISYNGNTRYQPSLKSRITISRDTSKNQFFLKLNSVTAADTATYYCVTASRGFPWWGQGTLVTVSS VL: DIQMTQSPSSMSVSVGDRVTITCHSSQDITYNVGWLQQKPGKSFKGLIYHGSNLDHGVPSRFSGSGSGTDYTLTISSLQPEDFATYYCVQYDDFPWTFGGGTKLEIK
 |  |  |  | 2.6 | 3.6 nM | 0.00079 s⁻¹ | 220000 M⁻¹ s⁻¹ |  |  |  |  |  |  |  |  | Antibody C (AbC) (antibody, V domains shown, Full length IgG1) VH: EVQLQESGPGLVKPSQTLSLTCTVSGYSISSDFAWNWIRQPPGKGLEWMGYISYSGNTRYQPSLKSRITISRDTSKNQFFLKLNSVTAADTATYYCVTAGRGFPYWGQGTLVTVSS VL: DIQMTQSPSSMSVSVGDRVTITCHSSQDINSNIGWLQQKPGKSFKGLIYHGTNLDDGVPSRFSGSGSGTDYTLTISSLQPEDFATYYCVQYEQFPWTFGGGTKLEIK
60.5 | 38 nM | 8.27e-05 s⁻¹ | 2200 M⁻¹ s⁻¹ | 31.8 | 0.3 nM | 9.4e-05 s⁻¹ | 318000 M⁻¹ s⁻¹ |  |  |  |  |  |  |  |  | Antibody J (AbJ) (antibody, V domains shown, Full length IgG1) VH: EVQLQESGPGLVKPSQTLSLTCTVSGYSIGKDFAWNWIRQPPGKGLEWMGYISYSGNTRYQPSLKSRITISRDTSKNQFFLKLNSVTAADTATYYCVTASRGLPYWGQGTLVTVSS VL: DIQMTQSPSSMSVSVGDRVTITCHSSQDITYNIGWLQQKPGKSFKGLIYHGANLDDGVPSRFSGSGSGTDYTLTISSLQPEDFATYYCVQYDEFPWTFGGGTKLEIK
441 | 5.2 nM | 4.07e-05 s⁻¹ | 7900 M⁻¹ s⁻¹ | 63.1 | 0.15 nM | 4.89e-05 s⁻¹ | 327000 M⁻¹ s⁻¹ |  |  |  |  |  |  |  |  | Antibody H (AbH) (antibody, V domains shown, Full length IgG1) VH: EVQLQESGPGLVKPSQTLSLTCTVSGYSIGKDFAWNWIRQPPGKGLEWMGYISYNGNTRYQPSLKSRITISRDTSKNQFFLKLNSVTAADTATYYCVTASRGLPYWGQGTLVTVSS VL: DIQMTQSPSSMSVSVGDRVTITCHSSQDITYNIGWLQQKPGKSFKGLIYHGANLDDGVPSRFSGSGSGTDYTLTISSLQPEDFATYYCVQYDEFPWTFGGGTKLEIK

Reference: US20150337042A1 (AbbVie / Abbott, published 2015)
